{"source": "paper PMC6899773", "about": "(Chemistry (Weinheim an Der Bergstrasse, Germany), 2019)", "target": "the molecule itself", "assay": "AUC"}
{"protein": "DC-SIGN extracellular domain (ECD) (domain or fragment, UniProt Q9NNX6 66-404, looked up) SISQEQSRQDAIYQNLTQLKAAVGELSEKSKLQEIYQELTQLKAAVGELPEKSKLQEIYQELTRLKAAVGELPEKSKLQEIYQELTWLKAAVGELPEKSKMQEIYQELTRLKAAVGELPEKSKQQEIYQELTRLKAAVGELPEKSKQQEIYQELTRLKAAVGELPEKSKQQEIYQELTQLKAAVERLCHPCPWEWTFFQGNCYFMSNSQRNWHDSITACKEVGAQLVVIKSAEEQNFLQLQSSRSNRFTWMGLSDLNQEGTWQWVDGSPLLPSFKQYWNRGEPNNVGEEDCAEFSGNGWNDDKCNLAKFWICKKSAASCSRDEEQFLSPAPATPNPPPA", "values": [{"measurement": "stoichiometry N", "result": 4}]}
